One data set deals with T1, THAP1 THAP domain (Homo sapiens, UniProt Q9NVV9 SEQ:1-90).
T1 sequence: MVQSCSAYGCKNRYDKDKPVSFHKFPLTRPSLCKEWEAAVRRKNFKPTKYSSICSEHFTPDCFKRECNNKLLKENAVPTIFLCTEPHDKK
Kind of data set: EMSA; 20 mM Tris-HCl pH 7.5, 100 mM KCl, room temperature. The settings on record: tags: C-terminal His6 (pET-21c); label: 32P. As for the experimental part: To confirm that the THAP domain is a novel sequence specific DNA-binding domain, electrophoretic mobility shift assays (EMSA) were carried out using wild-type or mutant THAP domain responsive elements (THRE) determined by SELEX (see Example 28 and FIGS. 18 and 24). Double-stranded probes used in EMSA experiments were purified on 12% polyacrylamide gels, ³²P end labeled with T4 polynucleotide kinase and quantified by Cerenkov counting. About 20 ng of purified THAP domain from human THAP1 (prepared as described in Example 28) was incubated with 30000 cpm of the appropriate probe (about 2 ng). Binding reactions were carried out for 10 minutes at room temperature in 20 μl binding buffer (20 mM Tris-HCl pH 7.5, 100 mM KCl, 0.1% NP-40, 100 μg/ml BSA, 2.5 mM DTT, 5% glycerol, 200 ng poly (dI-dC)). Electrophoresis was performed on 8% (29:1) polyacrylamide gels containing 5% glycerol. Gels were run in 0.25×TBE at 150V and 4° C., dried and exposed on a phosphoimager screen (Molecular Dynamics). Sequences of wild type and mutant THRE oligonucleotides used in EMSA experiments were as follow (mutations are indicated in bold): wild-type probe 3, 5′-[…]-3′ (SEQ ID NO: 313); mutant probe 3mut1, 5′-[…]-3′ (SEQ ID NO: 314); mutant probe 3mut3, 5′-[…]-3′ (SEQ ID NO: 319); mutant probe 3mut4, 5′-[…]-3′ (SEQ ID NO: 320); mutant probe 3mut14, 5′-[…]-3′ (SEQ ID NO: 321); mutant probe 3mut5, 5′-[…]-3′ (SEQ ID NO: 322).
For competition experiments, 50-, 150-, and 250-fold molar excess of unlabelled wild-type (THRE competitor, probe 3) or mutant (non-specific competitor, probe 3mut1) THRE oligonucleotides were added to the reaction mixture just before the addition of the probe.
In general terms: A gel shift assay detects complexes by their altered migration in electrophoresis.

For data set [1], the target named is T2, human chemokine SLC/CCL21, mature form (amino acids 24-134) (human, UniProt O00585 24-134).
T2 construct: also called SLC/6Ckine; SLC/CCL21 wild type
T2 sequence: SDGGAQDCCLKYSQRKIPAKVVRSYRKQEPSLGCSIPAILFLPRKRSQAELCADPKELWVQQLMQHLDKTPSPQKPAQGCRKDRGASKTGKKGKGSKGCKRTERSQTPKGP
Kind of data set: yeast two-hybrid, pGADT7-THAP1 mutant with pGBKT7-SLC/CCL21. As for the experimental part: Two-hybrid interaction between THAP1 mutants and chemokine SLC/CCL21 was tested by cotransformation of AH109 with pGADT7-THAP1-C1, -C2, -C3, -N1, -N2 or -N3 and pGBKT7-SLC/CCL21 and selection of transformants by His and Ade double auxotrophy according to manufacturer's instructions ([…] two-hybrid system 3, Clontech). pGBKT7-SLC/CCL21 vector was generated by subcloning the BamHI SLC/CCL21 fragment from pGBT9-SLC (see example 1) into the unique BamHI cloning site of vector pGBKT7 (Clontech).

Data set [2] has as its target T3, human THAP1 (THanatos (death)-Associated Protein-1), full length (human, UniProt Q9NVV9 1-213).
T3 construct: also called hTHAP1; FLJ10477
T3 sequence: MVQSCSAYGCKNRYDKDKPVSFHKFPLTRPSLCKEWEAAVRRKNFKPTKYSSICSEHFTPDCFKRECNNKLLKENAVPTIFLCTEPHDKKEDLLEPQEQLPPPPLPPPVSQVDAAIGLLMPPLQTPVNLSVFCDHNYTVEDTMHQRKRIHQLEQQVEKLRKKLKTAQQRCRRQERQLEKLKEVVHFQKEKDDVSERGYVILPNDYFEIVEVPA
Kind of data set: yeast two-hybrid, pGADT7-THAP1 mutant with pGBKT7-THAP1 wild-type. As for the experimental part:
Two-hybrid interaction between THAP1 mutants and THAP1 wild type was tested by cotransformation of AH109 with pGADT7-THAP1-C1, -C2, -C3, -N1, -N2 or -N3 and pGBKT7-THAP1 wild-type and selection of transformants by His and Ade double auxotrophy according to manufacturer's instructions ([…] two-hybrid system 3, Clontech).

The target in data set [3] is T4, Glutathione S-transferase (GST) control protein (pGEX-2T) (UniProt P08515 1-218 = GST).
T4 construct: Negative control immobilized on glutathione sepharose; also called GST beads; immobilized GST alone
Kind of data set: GST pull-down, immobilized GST control, in vitro translated 35S-labelled chemokine. As for the experimental part:
To confirm the interaction observed in yeast two-hybrid system, we performed in vitro GST pull down assays. THAP1, expressed as a GST-tagged fusion protein and immobilized on glutathione sepharose, was incubated with radiolabeled chemokines that were translated in vitro.
In vitro-translated chemokines were generated with the TNT-coupled reticulocyte lysate system (Promega, Madison, Wis., USA) using as templates pGBKT7-CCL21, -CCL19, -CXCL9, -CXCL10 and CXCL11 chemokine vectors (see Example 32) or pCMV-SPORT6-CCL5 plasmid (Image clone No. 4185200). In vitro-translated IFNγ cytokine was generated similarly using as template plasmid pGBKT7-IFNγ. A 25 μvolume of ³⁵S-labelled chemokine was incubated with immobilized GST-THAP1 or GST proteins overnight at 4° C., in the following binding buffer: 10 mM NaPO4 pH 8.0, 140 mM NaCl, 3 mM MgCl₂, 1 mM dithiothreitol (DTT), 0.05% NP40, and 0.2 mM phenylmethyl sulphonyl fluoride (PMSF), 1 mM Na vanadate, 50 mM β-glycerophosphate, 25 μg/ml chymotrypsine, 5 μg/ml aprotinin, and 10 μg/ml leupeptin. Beads were then washed 5 times in 1 ml binding buffer. Bound proteins were eluted with 2×Laemmli SDS-PAGE sample buffer, fractionated by 10% SDS-PAGE and visualized by fluorography using Amplify (Amersham Pharmacia Biotech). GST/THAP1 specifically bound to chemokines CCL21, CCL19, CCL5, CXCL9, CXCL10 and CXCL11 but not cytokine IFNγ (FIGS. 19 and 20). […] CXCL10 also bound to immobilized GST-THAP1 (indicated by ++ in the column labelled “In vitro binding to GST-THAP1”).

Data set [4] has as its target T3, human THAP1 (THanatos …). Kind of data set: yeast two-hybrid, pGADT7-THAP1 with pGBKT7-chemokine.
Text: […]

T4 sequence (P08515 whole entry): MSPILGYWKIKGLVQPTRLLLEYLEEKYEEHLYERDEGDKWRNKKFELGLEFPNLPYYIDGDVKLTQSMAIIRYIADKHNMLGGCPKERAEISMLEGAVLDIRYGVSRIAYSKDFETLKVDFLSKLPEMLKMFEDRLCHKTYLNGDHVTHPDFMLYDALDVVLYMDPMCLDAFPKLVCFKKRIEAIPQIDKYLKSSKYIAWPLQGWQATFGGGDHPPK

B1: 3mut14 (dsDNA)
DNA 1: AGCAAGTAAGGGCCAACTACTTCAT
DNA 2: ATGAAGTAGTTGGCCCTTACTTGCT
B1: the binding result in the data set with THAP1 THAP domain is recorded as “no binding”.

B2: THAP1-C2 deletion mutant (amino acids 120-213) (other)
chain: MPPLQTPVNLSVFCDHNYTVEDTMHQRKRIHQLEQQVEKLRKKLKTAQQRCRRQERQLEKLKEVVHFQKEKDDVSERGYVILPNDYFEIVEVPA
notes: Tested as a Gal4-BD or Gal4-AD fusion, as in vitro translated 35S-labelled protein and as an EGFP fusion
Take B2: the binding result (in data set [1]; with human THAP1 (THanatos …) [2]) was “binds” throughout.

B3: THAP1-N3 deletion mutant (amino acids 1-192) (other)
chain: MVQSCSAYGCKNRYDKDKPVSFHKFPLTRPSLCKEWEAAVRRKNFKPTKYSSICSEHFTPDCFKRECNNKLLKENAVPTIFLCTEPHDKKEDLLEPQEQLPPPPLPPPVSQVDAAIGLLMPPLQTPVNLSVFCDHNYTVEDTMHQRKRIHQLEQQVEKLRKKLKTAQQRCRRQERQLEKLKEVVHFQKEKDD
notes: as for B2
Take B3: the binding result with human THAP1 (THanatos …) [2] is reported as “binds”.

B4: THAP1-C1 deletion mutant (amino acids 90-213) (other)
chain: KEDLLEPQEQLPPPPLPPPVSQVDAAIGLLMPPLQTPVNLSVFCDHNYTVEDTMHQRKRIHQLEQQVEKLRKKLKTAQQRCRRQERQLEKLKEVVHFQKEKDDVSERGYVILPNDYFEIVEVPA
notes: Tested as a Gal4-BD or Gal4-AD fusion, as in vitro translated 35S-labelled protein and as an EGFP fusion; also called THAP1ΔTHAP; THAP1?THAP
As for B4, in the data set with human THAP1 (THanatos …) [2], the binding result is “binds”.

B5: 3mut3 (dsDNA)
DNA 1: AGCAAGTAAGGTCAAACTACTTCAT
DNA 2: ATGAAGTAGTTTGACCTTACTTGCT
On to B5, for which the binding result with THAP1 THAP domain is reported as “no binding”.

B6: human chemokine I-TAC/CXCL11, mature form (amino acids 22-94) (ligand)
chain: FPMFKRGRCLCIGPGVKAVKVADIEKASIMYPSNNCDKIEVIITLKENKGQRCLNPKSKQARLIIKKVERKNF
notes: The range is stated on the GenBank entry; Tested as a Gal4-BD fusion (pGBKT7-CXCL11) and as in vitro translated 35S-labelled protein from that vector
As for B6, the binding result in data set [3] is recorded as “no binding”.

B7: human chemokine ELC/CCL19, mature form (amino acids 22-98) (ligand)
chain: GTNDAEDCCLSVTQKPIPGYIVRNFHYLLIKDGCRVPAVVFTTLRGRQLCAPPDQPWVERIIQRLQRTSAKMKRRSS
notes: The range is stated on the GenBank entry; Tested as a Gal4-BD fusion (pGBKT7-CCL19) and as in vitro translated 35S-labelled protein from that vector; also called MIP3b/CCL19
In the case of B7, the figures for the binding result (in data set [3]; with human THAP1 (THanatos …) [4]) were “no binding” and “binds”, respectively.

B8: 3mut5 (dsDNA)
DNA 1: AGCAAGTAAGGGAAAACTACTTCAT
DNA 2: ATGAAGTAGTTTTCCCTTACTTGCT
With B8, in the data set with THAP1 THAP domain, the binding result is recorded as “no binding”.

B9: THAP1-C3 deletion mutant (amino acids 143-213) (other)
chain: MHQRKRIHQLEQQVEKLRKKLKTAQQRCRRQERQLEKLKEVVHFQKEKDDVSERGYVILPNDYFEIVEVPA
notes: as for B2
As for B9, the binding result (in data set [1]; in the data set with human THAP1 (THanatos …) [2]) was “binds” in each case.

B10: human chemokine MIG/CXCL9, mature form (amino acids 23-125) (ligand)
chain: TPVVRKGRCSCISTNQGTIHLQSLKDLKQFAPSPSCEKIEIIATLKNGVQTCLNPDSADVKELIKKWEKQVSQKKKQKNGKKHQKKKVLKVRKSQRSRQKKTT
notes: The range is stated on the GenBank entry; Tested as a Gal4-BD fusion (pGBKT7-CXCL9) and as in vitro translated 35S-labelled protein from that vector
For the molecule B10, the binding result in data set [3] is “no binding”; in the data set with human THAP1 (THanatos …) [4], “binds”.

B11: 3mut4 (dsDNA)
DNA 1: AGCAAGTAAGTGCAAACTACTTCAT
DNA 2: ATGAAGTAGTTTGCACTTACTTGCT
Turning to B11, the binding result in the data set with THAP1 THAP domain was “no binding”.
